Measurements from the supplement of paper PMC7877785.
± gives the uncertainty stated by the source.

Test: self-splicing fitness, log relative to wild type (ln ratio); higher = more splicing; Tetrahymena group I intron in knt gene, E. coli kanamycin selection, DiMSum; sequences stand for … in CUCUCU…GGAGGGAAAAGUUAUCAGGCAUGCACCUGGUAGCUAGUCUUUAAACCAAUAGAUUGCAUCGGUUUAAAAGGCAAGACCGUCAAAUUGCGGGAAAGGGGUCAACAGCCGUUCAGUACCAAGUCUCAGGGGAAACUUUGAGAUGGCCUUGCAAAGGGUAUGGUAAUAAGCUGACGGACAUGGUCCUAACCACGCAGCCAAGUCCUAAGUCAACAGAUCUUCUGUUGAUAUGGAUGCAGUUCACAGACUAAAUGUCGGUCGGGGAAGAUGUAUUCUUCUCAUAAGAUAUAGUCGGACCUCUCCUUAAUGGGAGCUAGCGGAUGAAGUGAUGCAACACUGGAGCCGCUGGGAACUAAUUUGUAUGCGAAAGUAUAUUGAUUAGUUUUGGAGUACUCGUGGUCG
How it was run: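 Pooled colonies went to amplicon sequencing on an Illumina HiSeq 2500 after six replicate transformations. The plates were LB agar with 100 μg/mL carbenicillin, 50 μM IPTG and 0.2% rhamnose, with or without 25 μg/mL kanamycin, incubated overnight at 37°C or 30°C. The E. coli BL21(DE3) library had all eight P1ex-region intron nucleotides randomised, the intron placed in the knt kanamycin-resistance gene on pET-22b(+). DiMSum fitness is the error-weighted combination of replicate fold changes, kanamycin against none, normalised to wild type.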

Sequence: UGUUAGCAAUAUUACGGUUC
- self-splicing fitness (ln) (30 °C): -1.02 ± 0.24
- self-splicing fitness (ln) (37 °C): -1.25 ± 0.48

Sequence: GGAGAGCAAUAUUACGGGCA
- self-splicing fitness (ln) (30 °C): -2.49 ± 0.24
- self-splicing fitness (ln) (37 °C): -1.22 ± 0.21

Sequence: AUCGAGCAAUAUUACGCGUG
- self-splicing fitness (ln) (30 °C): -2.55 ± 0.13
- self-splicing fitness (ln) (37 °C): -1.2 ± 0.14

Sequence: GGACAGCAAUAUUACGGUCU
- self-splicing fitness (ln) (30 °C): -3.84 ± 0.24
- self-splicing fitness (ln) (37 °C): -1.18 ± 0.2

Sequence: UAAUAGCAAUAUUACGGUAA
- self-splicing fitness (ln) (37 °C): -1.04 ± 0.28

Sequence: CCGCAGCAAUAUUACGCCAG
- self-splicing fitness (ln) (30 °C): -0.493 ± 0.091
- self-splicing fitness (ln) (37 °C): -0.22 ± 0.14

Sequence: CAGAAGCAAUAUUACGCGGG
- self-splicing fitness (ln) (30 °C): -2.43 ± 0.2
- self-splicing fitness (ln) (37 °C): -2.74 ± 0.27

Sequence: CAAAAGCAAUAUUACGUGAC
- self-splicing fitness (ln) (30 °C): -5 ± 0.36
- self-splicing fitness (ln) (37 °C): -2.47 ± 0.18

Sequence: GACGAGCAAUAUUACGGGUC
- self-splicing fitness (ln) (30 °C): -3.77 ± 0.21
- self-splicing fitness (ln) (37 °C): -3.28 ± 0.25

Sequence: CGAAAGCAAUAUUACGCAUC
- self-splicing fitness (ln) (37 °C): -2.75 ± 0.36

Sequence: GGGCAGCAAUAUUACGGAUG
- self-splicing fitness (ln) (30 °C): -3.41 ± 0.26
- self-splicing fitness (ln) (37 °C): -2.81 ± 0.34

Sequence: UUGAAGCAAUAUUACGCCGU
- self-splicing fitness (ln) (30 °C): -1.33 ± 0.15
- self-splicing fitness (ln) (37 °C): -0.893 ± 0.18

Sequence: ACAGAGCAAUAUUACGCACC
- self-splicing fitness (ln) (30 °C): -3.6 ± 0.47
- self-splicing fitness (ln) (37 °C): -2.04 ± 0.38

Sequence: AUCUAGCAAUAUUACGCACC
- self-splicing fitness (ln) (30 °C): -0.201 ± 0.21
- self-splicing fitness (ln) (37 °C): -0.886 ± 0.38

Sequence: CGUAAGCAAUAUUACGGGUG
- self-splicing fitness (ln) (30 °C): -1.64 ± 0.057
- self-splicing fitness (ln) (37 °C): -0.924 ± 0.057

Sequence: CUCCAGCAAUAUUACGCAGA
- self-splicing fitness (ln) (30 °C): -3.72 ± 0.35
- self-splicing fitness (ln) (37 °C): -1.94 ± 0.2

Sequence: CCGGAGCAAUAUUACGUUGU
- self-splicing fitness (ln) (30 °C): -2.59 ± 0.21
- self-splicing fitness (ln) (37 °C): -2.56 ± 0.26

Sequence: ACAUAGCAAUAUUACGCGGG
- self-splicing fitness (ln) (30 °C): -3.09 ± 0.12
- self-splicing fitness (ln) (37 °C): -1.64 ± 0.13

Sequence: GGUGAGCAAUAUUACGCGGA
- self-splicing fitness (ln) (30 °C): -2.35 ± 0.19
- self-splicing fitness (ln) (37 °C): -1.57 ± 0.15

Sequence: GUUAAGCAAUAUUACGGUAA
- self-splicing fitness (ln) (30 °C): -1.5 ± 0.15
- self-splicing fitness (ln) (37 °C): -1.28 ± 0.14

Sequence: UGCGAGCAAUAUUACGCGUA
- self-splicing fitness (ln) (30 °C): -4.01 ± 0.32
- self-splicing fitness (ln) (37 °C): -1.6 ± 0.14

Sequence: AAGCAGCAAUAUUACGUGGU
- self-splicing fitness (ln) (30 °C): -4.16 ± 0.2
- self-splicing fitness (ln) (37 °C): -1.27 ± 0.11

Sequence: GGGAAGCAAUAUUACGCAAG
- self-splicing fitness (ln) (30 °C): -2.81 ± 0.16
- self-splicing fitness (ln) (37 °C): -1.14 ± 0.14

Sequence: AAGGAGCAAUAUUACGGACU
- self-splicing fitness (ln) (30 °C): -1.99 ± 0.16
- self-splicing fitness (ln) (37 °C): -0.907 ± 0.19

Sequence: GCGAAGCAAUAUUACGAACU
- self-splicing fitness (ln) (30 °C): -0.877 ± 0.16
- self-splicing fitness (ln) (37 °C): -0.787 ± 0.17

Sequence: ACGUAGCAAUAUUACGUGGA
- self-splicing fitness (ln) (30 °C): -3.46 ± 0.32
- self-splicing fitness (ln) (37 °C): -2.2 ± 0.23

Sequence: AACGAGCAAUAUUACGAGGU
- self-splicing fitness (ln) (30 °C): -3.56 ± 0.18
- self-splicing fitness (ln) (37 °C): -1.96 ± 0.16

Sequence: AAAUAGCAAUAUUACGAUAU
- self-splicing fitness (ln) (30 °C): -1.21 ± 0.13
- self-splicing fitness (ln) (37 °C): -0.352 ± 0.16

Sequence: GUUUAGCAAUAUUACGAAAG
- self-splicing fitness (ln) (30 °C): -1.07 ± 0.18
- self-splicing fitness (ln) (37 °C): -0.341 ± 0.22

Sequence: UCGGAGCAAUAUUACGAGGG
- self-splicing fitness (ln) (30 °C): -3.58 ± 0.21
- self-splicing fitness (ln) (37 °C): -2.94 ± 0.44

Sequence: UACAAGCAAUAUUACGCGUU
- self-splicing fitness (ln) (30 °C): -2.57 ± 0.096
- self-splicing fitness (ln) (37 °C): -1.71 ± 0.093

Sequence: UACGAGCAAUAUUACGGGAU
- self-splicing fitness (ln) (30 °C): -2.49 ± 0.14
- self-splicing fitness (ln) (37 °C): -2.74 ± 0.27

Sequence: CCCCAGCAAUAUUACGAAAU
- self-splicing fitness (ln) (30 °C): -3.82 ± 0.17
- self-splicing fitness (ln) (37 °C): -2.25 ± 0.18

Sequence: AAGAAGCAAUAUUACGGCUA
- self-splicing fitness (ln) (30 °C): -0.552 ± 0.077
- self-splicing fitness (ln) (37 °C): -0.0286 ± 0.1

Sequence: UCGUAGCAAUAUUACGGUGG
- self-splicing fitness (ln) (30 °C): -2.84 ± 0.098
- self-splicing fitness (ln) (37 °C): -1.31 ± 0.086

Sequence: AUUAAGCAAUAUUACGCGUU
- self-splicing fitness (ln) (30 °C): -1.78 ± 0.11
- self-splicing fitness (ln) (37 °C): -0.33 ± 0.12

Sequence: CUAGAGCAAUAUUACGUUGU
- self-splicing fitness (ln) (30 °C): -3.77 ± 0.2
- self-splicing fitness (ln) (37 °C): -2.5 ± 0.22

Sequence: CUCGAGCAAUAUUACGCCUU
- self-splicing fitness (ln) (30 °C): -2.45 ± 0.15
- self-splicing fitness (ln) (37 °C): -2.72 ± 0.37

Sequence: AAGGAGCAAUAUUACGCCCG
- self-splicing fitness (ln) (30 °C): -1.88 ± 0.17
- self-splicing fitness (ln) (37 °C): -1.01 ± 0.22

Sequence: CAUAAGCAAUAUUACGCGGA
- self-splicing fitness (ln) (30 °C): -3.61 ± 0.24
- self-splicing fitness (ln) (37 °C): -1.68 ± 0.16

Sequence: CCACAGCAAUAUUACGCCCU
- self-splicing fitness (ln) (30 °C): -2.75 ± 0.25
- self-splicing fitness (ln) (37 °C): -2.08 ± 0.23

Sequence: CAAUAGCAAUAUUACGAAGU
- self-splicing fitness (ln) (30 °C): -3.76 ± 0.15
- self-splicing fitness (ln) (37 °C): -2.64 ± 0.15

Sequence: AAGAAGCAAUAUUACGCUCA
- self-splicing fitness (ln) (30 °C): -0.0265 ± 0.13
- self-splicing fitness (ln) (37 °C): -0.132 ± 0.12

Sequence: GAAGAGCAAUAUUACGAUGU
- self-splicing fitness (ln) (30 °C): -2.54 ± 0.2
- self-splicing fitness (ln) (37 °C): -1.39 ± 0.15

Sequence: UAGCAGCAAUAUUACGGUUU
- self-splicing fitness (ln) (30 °C): -0.986 ± 0.051
- self-splicing fitness (ln) (37 °C): -0.354 ± 0.067

Sequence: CCAGAGCAAUAUUACGGUAC
- self-splicing fitness (ln) (30 °C): -3.29 ± 0.17
- self-splicing fitness (ln) (37 °C): -1.52 ± 0.26

Sequence: GAACAGCAAUAUUACGUGUA
- self-splicing fitness (ln) (30 °C): -1.58 ± 0.062
- self-splicing fitness (ln) (37 °C): -0.438 ± 0.069

Sequence: CGUGAGCAAUAUUACGAAAG
- self-splicing fitness (ln) (30 °C): -1.89 ± 0.17
- self-splicing fitness (ln) (37 °C): -0.94 ± 0.16
